The record followed here is publication PMC13227277, “Targeting CIRP and IL-6R-mediated microglial inflammation to improve outcomes in intracerebral hemorrhage” (Journal of Advanced Research, 2025).

For this test, the system named is Cirbp^−/− microglia vs WT microglia. The test is described as follows: TNF-α and IL-6 release, WT and Cirbp^−/− microglia with rmCIRP, ELISA. It counts as cell-based, mouse. The conditions noted are these: CIRP treatment, 24 h, n = 3–4. The procedure: ELISA was used to quantify CIRP, MD2, IL-6, and TNF-α concentrations in blood and cerebrospinal fluid samples. Samples were processed and stored under standardized conditions to preserve protein integrity. Each target protein was measured using commercial ELISA kits, following the manufacturer’s instructions: Mouse CIRBP ELISA Kit (CSB-EL005440MO, CUSABIO), Mouse TNF-α ELISA Kit (EK282, Lianke Bio), Mouse IL-6 ELISA Kit (CSB-E04639m, CUSABIO), and […].
Primary cortical neurons were isolated from embryonic day 16–18 (E16–E18) C57BL/6 mouse embryos as previously described, and cultured in Neurobasal medium supplemented with B27 and GlutaMAX (Gibco).Primary microglial cells were isolated from the cortices of neonatal (day 1) C57BL/6J mice. After disinfection with 75 % ethanol, the skin and skull were removed, and the brains were placed in ice-cold HBSS. The meninges were peeled off, the cortex was collected, and the hippocampus was discarded. Tissues were digested with 0.25 % trypsin at 37 °C for 12 min, centrifuged at 1200 rpm for 5 min, and resuspended in complete medium. […]
RBCs were isolated via density gradient centrifugation and labeled with CFSE before being stereotactically injected into the right striatum. […] Cell viability was assessed using a Fixable Viability Dye, and flow cytometric analysis was subsequently performed. […]
(In an ELISA, binding on a coated surface is turned into a signal by an enzyme label.)

B1: recombinant human CIRP (cold-inducible RNA-binding protein) (natural protein, UniProt Q14011 1-172, looked up)
chain: MASDEGKLFVGGLSFDTNEQSLEQVFSKYGQISEVVVVKDRETQRSRGFGFVTFENIDDAKDAMMAMNGKSVDGRQIRVDQAGKSSDNRSRGYRGGSAGGRGFFRGGRGRGRGFSRGGGDRGYGGNRFESRSGGYGGSRDYYSSRSQSGGYSDRSSGGSYRDSYDSYATHNE
notes: UniProtKB Q14011 is printed for the docking; also called rhCIRP; human CIRBP; source: recombinant
Turning to B1, the “IL-6 and TNF-α secretion, Cirbp^−/− vs WT microglia” value is “marked decrease in the secretion of both IL-6 and TNF-α levels”.
